Data: publication PMC5379939

Legend:
EYFP-ELKS1(771–976) = experiment: FRET or BRET
GST-ELKS1(771–976) = experiment: pull-down; settings: scale: GST-ELKS1(771–976) per MBP-bMunc13-2(1–305)

Row | Substance | fold of the FRET value of cells coexpressing soluble ECFP and EYFP (EYFP-ELKS1(771–976)) | normalized FRET value (EYFP-ELKS1(771–976)) | stoichiometry N (GST-ELKS1(771–976))
1 | ECFP-bMunc13-2(70–204) (domain or fragment) | 7 fold | 0.07 | 
2 | MBP-bMunc13-2(1–305) (domain or fragment) |  |  | 1.69
